Measured values published in US9144596.

Experiments:
[1] = test system: mutant (I-A,Y-A) APC peptide (1250-KVSSINQETAQTACVEDTPI-1269)
[2] = test system: wild-type APC peptide (1250-KVSSINQETIQTYCVEDTPI-1269)

**Q.** How did the “dRP-lyase activity of pol-βwt (3'-end labeled U-DNA substrate)” value [1] turn out when “His-tagged pol-βwt protein (human pol-β, carboxyl-terminal hexahistidine tag, pET23d)” was run?
**A.** Its value is “APC(I-A,Y-A) did not show any effect on the dRP-lyase activity of pol-βwt”.

**Q.** And the “dRP-lyase activity of pol-βwt (3'-end labeled U-DNA substrate)” value [2]?
**A.** The value was “a very efficient dRP-lyase activity of pol-βwt ..., which was blocked by APCwt peptide in a dose-dependent manner”.
